Results reported in the DeepSol protein solubility set.

Assay: soluble on expression in E. coli; label from the status in PepcDB or PDB records

| Sequence | soluble on expression in E. coli |
| --- | --- |
| MGSDKIHHHHHHENDPPLSSCGIFQSRIAGDALLDSGIRISSVFASPALRCVQTAKLILEELKLEKKIKIRVEPGIFEWTKWEAGKTTPTLMSLEELKEANFNIDTDYRPAFPLSALMPAESYQEYMDRCTASMVQIVNTCPQDTGVILIVSHGSTLDSCTRPLLGLPPRECGDFAQLVRKIPSLGMCFCEENKEEGKWELVNPPVKTLTHGANAAFNWRNWISGN | not soluble |
| MGSDKIHHHHHHENLYFQGMKKVFITTGTEHYLRQLMENYIGENVTLLQNFSQSLLYQESTGEKLFQEGKEYRVLQSSGSLKGFGIVVFEYIQLRDEEIPIFLQMYQHASLHFSETPGLQSTKLTKAMNTNQFLIVSFWDSEVFFQEWKKTPLHKEITSIMKKNNTQVGFSHEDIYHYPEFSHDAK | soluble |
| MGSDKIHHHHHHENLYFQGMRISANFDGGNIETISLANPDDIQLAIRPDAGGEFYQWFNFRFEATIGKTYTLNILNAGGASYLKGWEDYQAVASYDRQTWFRLPTEYKDGKLSISVELDCEAIQIAYFTPYSYERHLDLISAVQLHPLVSTEHLGLTLDGRDMTLVKVGDDDPSKKSIWITARQHPGETMAEWLVEGLLNQLLDNDCPTSKALLDKANFYIVPNMNPDGSVRGHLRTNAVGANLNREWQTPSLERSPEVYYVVNKMHETGVDLFYDVHGDEGLPYVFLAGCEGIPNYSDKLASLQQDFVAALSLASADFQTEFGYDKDEPGKANLTVACNWVANTFKCLSNTLEMPFKDNANLADPFQGWSPERSVYFGEASLIAMRAVIDKIGQ | soluble |
| MGSDKIHHHHHHENLYFQGMSRKVILTCAVTGNAPFNPKHPSMPITPAQIADACVEAAKAGASVAHIHVRDPKTGGGSRDPVLFKEVVDRVRSSGTDIVLNLTCGLGAFLLPDPEDESKALPESDVVPVAERVKHLEDCLPEIASLDITTGNQVEGKLEFVYLNTTRTLRAMARRFQELGIKPELEVFSPGDILFGKQLIEEGLIDGVPLFQMVLGVLWGAPASTETMIYQRNLIPANAQWAAFGIGRDQMPMMAQAALLGGNVRVGLEDNLYLSRGVFATNGQLVERARTVIEHLGMSVATPDEARDIMGLSRPA | soluble |
| MGSDKIHHHHHHGQNVHPNLPWIDISGQRERQVTIAPGRPDLYNGHPTTVMMDDHKTILCTWSYGHGGKASFIAESKDAGLTWKNGKTPADWQTMSNCPSIYKLTDKQGKERVFVFSAWPDMPMTYSEDGGKSWSPVRSLNKPCVMAFSSIVKLKNGDYLGLYHRGLNDRDRPPLTLWQSVSHDGGLTWSESVKVGEMEGRSPCEPCVFRAPDGKRLVCVARENNRVGNSLMMFSDDEGTTWSPLQKTPWGLTGDRHVIKFTPDGRMIAVFRDMAPNSPTKGHFVAWVGNYKDLLEGTSGQYKIKLLHSYAGSDCGYPGLEILPDGTIVAITYVKMRPGPEQHSIVGVRFKLEETDKMLY | not soluble |
| MGSDKIHHHHHHIDQWIRRQHHPTGNPTATQNKVFIATQNQPLLMDTGEKKSPPPPTPPNPPVNHAIAPVAQHPQPMPIPHQVPSPAHGAAHGHPQAPPMYPGIGFAPGMLQLPQNMQTTIVYTPSMAYDNGHPAAQVN | not soluble |
| MGSDKIHHHHHHILDSTIYLIGTAHFSKESQEDVSNTIRAVQPDFVMLELCPSRISIISMDEARLLSEAKDLNSQKIIQTMKQNGAIQGILHVLLLSMSAHVTRELSMAPGGEFRAAHRAAVATENCRVVLGDRPIQVTLQRALASLSIWQKIRFFFHVAFSHREKITAEEVERCKQRDLLEQLLAEMADDFPQLSQIFVEERDAYMTHALHMLVHRNSVEKRAQWLRGTTGQQFQPLTVVAVV | not soluble |
| MGSDKIHHHHHHKDDEESTSGYDPNKPIVLTDFYPPEGKLATQVILNGSNFGDSKENVKVFFNDKEASVISVKDDRMLVLAPKRASTIEDPECVVKVQVHEQIEEYKQTFDYYIQTTVTTLVGGSTSAQVNPTGTIPLSEAQFRANIDRCICVDQDKNVFFLVDNDGKFAAFMLNEEADKLISLKSDINALFNSPVLGYNSKDDIVYQFWANRDSHEVYYFDPKTDYAPTTAISSISWDDPNFPNIEGFGVWAAKCNFTMGPDGKMYSRMLGGNLVRIDVENARGENLTNGDLVGTKDGSAYGLVFDPQDENVFYFSNNDKHCIYKYDLRTKECACWAGQEGKSGYLDGPIGQAMFNKPGQMCVDSEGNIILTDTENHCIRKITMSTGYVSTLAGKPQNSGYVNGSAEDAQFKKPLGICIDNDDVMYIGDSENRAIRRLAVE | not soluble |
| MGSDKIHHHHHHKETSEKPVLFPDYADVTIPYNIAPLNFKIENPHAEAFAVLKFGEEKIQVKEKGGQFYLPASDWRKLLKRATGKAIQVKLYAKDKEWLAYPEFSLFVAPEPMDSYLAYRLIEPGYELWNQMGIYQRNLEDYKQSPIMENKYSGQNCMNCHSFCMQNPDKMLFHMRDKYSGTYLIDGDKIEKLNTKTDQTISPLVYPSWHPSGKYVAFSVNQTSQSFHANDKNRVEVFDSQSDVVVYDTEKHEIISTPSIRTAKAFETFPTFSPDGKTLYFCSAEARSMPHEYSEVKYNLCSIAFDPVTRSFGSRIDTLYNAGKDGKSASFPRVSPDGKFLLYTLSGYGNFSIWHKDADLYLLDIASGISHSLQNANSTDTESYHSWSSNSRWIVFSSRRIDGLYTRPYFAYIDEEGNASKPFLLPQKDTDYYHRFMKSYNIPEFITGKVSSKIRALSTLAKEDKGIDVTYRK | not soluble |
| MGSDKIHHHHHHKRQVSGDEAYLQASPLSELHAPAGMILPIQVGDYNIPVANSTGAVGKALDIRPPAQPLALVSGARTQFNGDTATLMVENGRSGSLWAQVTSILQAKNYVIAKRDDASQTLNTDWVEWNRLDEDQQYRGRYQISVKPQGYQQAVVVKLVNLEQAGKPVADPASLQRYSTAMLNVISEGLDMNATSAQNAAQRSAGATFDVQSAADDTGLPMLVVRAPFNLVWQRLPGALEKVGMKVTDSTRSQGSMALTYKPLSDSSWQELGARDPQLVSGDYKLQVGDLDNRSSLQFIDPKGHTLTQSQNDALVAVFQAAFNK | not soluble |
| MGSDKIHHHHHHKVRPTKTTLKKDTQLYGVTIDDSWYDRTKMTDIIAALKAMPVKPTVRIVMSKDSSPKSYVNLFRKLHKVAYVMACPVDSYEMNLYKDVNSYRKRFAVAYHYLSSYTDIWEIGNEVNGTDWIKQKNTLITQKLKAVCQTISSAGGKTALTFYYENPKYDHDMIAWIKKNIPVMLRSRVDYGFISYYEDDNEGYQPDWQSVFNQLQNLFPNSNVGMGECGNTADNATENSKIAMAKRYYTMPKYTKHYVGGYFWWEWVQDCVPHENNPIYDAINKSLKK | not soluble |
| MGSDKIHHHHHHLEFWDGLSGGKAITPLKKEEIKHIEKQLGSRLPKSYLKKMEEQNGGDIAFNSVVVNFKNSWSDEETGLYLPLYEFMPLTIGKFVENTSVLNEWGLAGKKMIFGEGEGSYLWYFDFDENPKNPEVWCLDISDETAHLVAESFEALLPNLKKRANDDVLTHEDVFADYPSMCEIRETIKGTDEDARLEAYRMWLTRCEDLEGLIAELRQRVEHSDEEDELDSYAELLAEVLINYTSEEFMTYEEAIALFNKKEDVSDLSHVIVQLESEV | not soluble |
| MGSDKIHHHHHHLFAIRDEHLALDIVQDSMMKLVEKYSAKPLEELPLLFQRILQNTIRDFYRRQKTRSLWTTLFSAFIPSDHEKESEDFDLLETLQSDPSSSKVNDPHQQLEQSQLINLLERAIETLPARQREAFLLRYWEEMDVMETAKIMGCSEGSVKTHCSRATHTLAAMLKKHGIGL | not soluble |
| MGSDKIHHHHHHLFSEAQMQKMGAESFASMNQEQKVSKDKALTTYVNCVAKRITDVLPGEAKPWELVLFESDQVNAFAVPGGFIGVYTGLLNVANTQDQLATVLGHEVAHVLAHHGNEQVSRAQMTGLGIQLADVALGAGGVSNKDLYMQALGLGAKVGYILPFGRTQESEADVMGLELMAKAGFDPSQSITLWQNMAKAGGAQGPELLSTHPSNERRIQDLQGLQGRVAPLYLAARETQLAKCIQPGKK | not soluble |
| MGSDKIHHHHHHLGRRGTADDEILLTYCPTLFIVGAEGRRFNNEAITELRTSMISPSGLVVVGHSNDMILVPTSMLLRLGISQTVVFRMVLEKILDFLNLEPVRQQEFADLVPIELNNVFDLDSALLKSDKALSGLAFASSTHSASSSAAPSPVGASGRRATVTGAGSEDIAKRRKESIILSQQIAAPSISGPPPPAPSPRTEDRFLAFQNLVASTITTGDDMPRRASMGASPRVIERGDFRDHRPPPPPPLPILQNPVATPMSQQPPLPSPAPPPPRGPVDPASISLI | not soluble |
| MGSDKIHHHHHHLIRGLYTAGAGMMLQMARQDVVANNLANVNTSGFKKNTAVAKAFPDMLISRLGECKEDKQGQLKVQSPVVIGRLGTGASISGIYTDFDNNNLKKTDSPCDLAITGAGYFVVQTPEGQRFTRCGEFKINSEGILTTNSGYPVLDSNDSPITIEGEFLIDEQGNINVDGENITRLKIVNFNDLQILERLGDNLLNSPEEPYVMERPEMLQGYIEQSNVNAVKEMVTLISVVRAYESLQKMVQAEDEIMGQAIDKVGSIN | not soluble |
| MGSDKIHHHHHHLITIENSKFKAGIAERGAELQSLVNKADNYEYVWTGDKTFWNRHAPILFPSIGKSNQDQYRLGAKTYPMSQHGFARDYDFDVSDKSDSAVTFTQHQNAETLKKFPFEYTLAVTYMLTDGGLSVHYTVTNDDSKSMPFALGFHPAFNVGLKADGSFDDYDLTVEPLNSPLQRFGIGPVPFRNGDVEDIPGAEGNRLPLTHDLLDGGLVILANSEIAKATLASPHHDHSITLDISDFPYLTIWSPEHKKAPFIAVEPFDGLPDQAGEPTDWYTKLGNTTLSAGANKQLALKVELH | not soluble |
| MGSDKIHHHHHHLKPNNNTNKGVDYWTNRISELEMPALCSTVKSLEKLAKDDVSSLALLGRSVMHDNALTSRILRVANSAIYHKGSSQISTVSRAAIVLGFDAVRNICITAKLLSSLLESKNLAPNVYQRLIKLMAKAFQAAMIARMMLSHHDEEMQEEAFIASLLYHIGESAFWSIGGEFTEELDLTLCQCETPAEERSATREALGASFLQLTQSIARNWGLGELLIQALNYPEDQRPDIRAIFLADKLCDILSQPVLDKLELAKRMTQAAIFTGLEEKEFLVRMQRCANATHKLAEVYGAKVLLDYLPDPKRIVAAEPDLPPIPLDMPVYQVNLNIQLAKLRELTGFAINKADFNQIMQTVLEGILEGVGVDRCGVLLLSPSRKQLQPRVILGRDADAIKQEFIIDLSDKRGLFHQAMEHKAPLWVDDPSSKNGRSSARSCKRGTCHGRAFYWRLCWLIAK | not soluble |
| MGSDKIHHHHHHLKVLMYSISLAYMIRNLPYASLRAFEAVVRLGSFSAAAGDLGVSQSAVSQHVKSLEEWLGQELLVRGARASKGTRYGTLLAREIDRGLGGISEVCTQIRAASHSDTTVVISCLPGFAFTWLFPRLLRFDLAHPDLSISIATDTGGRPFNPADADIGIRYGHGEFPNLRVDHLMGERLFPVCAPQVAERLTDVASLGQHTLLQDEILNFGSANPSWEYWAEACGVHLPSRARTRRFGQSNLVLQAAIEGLGVALGREPLVLDALTDGRLVRPFTQNVKSPLSYWLVRRKQADDSPKVQEFLKWIKKEAETQPDIPASLNKFA | not soluble |
| MGSDKIHHHHHHLLASGLEYSHHMSPDAMVEDITRLVEIWVTGWAGCRGYETRTEGRFPAALRADTTKEWEYFAHDPSDTEFAELAAKTAEAPARILTILTNDVARYTYLAQQHGLNVTSASQTMMIVDMETRDSEDPWLSDDDLKLTTFKKDGVHHAVVNAGESVAASGRVFVVGHTAVFDKIVTEPAYQRRGLGSFIMKALAAQAFEHDVENGLLLASLDGQKLYSHLGWTTLCHVLMLSSSNEGADLSVG | not soluble |
